Reference: article PMC5374433, “Theranostic Value of Multimers: Lessons Learned from Trimerization of Neurotensin Receptor Ligands and Other Targeting Vectors” (Pharmaceuticals, 2017)
Where two headings read alike, the source gives them in different places.

Legend:
[1] = Biodistribution in HT29 tumor-bearing nude mice; format: in vivo, mouse; details: mouse; for tissue uptake at 1.5 h / tissue uptake at 1 h: in vivo
Protocol: (§1) For in vivo evaluation of [^68Ga]Ga-TRAP(NT4)3 the NTS1-positive human colorectal adenocarcinoma cells HT29 were injected in nude mice to generate a subcutaneous tumor. The radioligand was injected in the tail vein of the mice and the biodistribution was determined 60 and 90 min after tracer injection. […] The clearance rate of [^68Ga]Ga-TRAP(NT4)3 in these excretion organs was apparently low. […] (1.44 %ID/g). Blocking experiments were performed to confirm the specificity of the tumor uptake of [^68Ga]Ga-TRAP(NT4)3 in vivo. Therefore, TRAP(NT4)3 (20 nmol) or NT4 (100 nmol) were co-injected together with the radiotracer to define the nonspecific uptake of the tracer in the tumor region. […] Apart from the intestine, the uptake in all other organs was not affected by the blocking substances (Table 2), confirming the receptor-mediated uptake of [^68Ga]Ga-TRAP(NT4)3, as it was reported that NTS receptors are expressed in the small intestine of mice.
(§2) All animal experiments were performed in compliance with the protocols approved by the local Animal Protection Authorities (Regierung Mittelfranken, Germany, no. 54-2532.1-15/08). Female athymic NMRI nude mice (nu/nu) were obtained from Harlan Winkelmann GmbH (Borchen, Germany) at four weeks of age and were kept under standard conditions (12 h light/dark) with food and water available ad libitum for at least five weeks. HT29 tumors were generated as described before.
(§3) HT29 xenografted nude mice were injected with [^68Ga]Ga-TRAP(NT4)3 into a tail vein (2.5–7.5 MBq/mouse). The animals were killed by cervical dislocation 60 or 90 min p.i. The tumors, other tissues (lung, liver, kidneys, heart, spleen, brain, muscle, femur, and intestine) and blood were removed and weighed. Radioactivity of the samples was measured using a γ-counter and expressed as the percentage of injected dose per gram of tissue (%ID/g), from which tumor-to-blood ratios were calculated. Blocking experiments were carried out by co-injecting randomly chosen mice with TRAP(NT4)3 (20 nmol/mouse) or NT4 (100 nmol/mouse) together with the radiotracer. These mice were killed by cervical dislocation at 60 min p.i., and organs and tissue were removed, weighed, and counted as described above.

[2] = system: HT29 xenografted nude mice; assay: Biodistribution in HT29 tumor-bearing nude mice; format: in vivo, mouse
Protocol: as §1, §2, §3

human NTS1 = human NTS1 (Homo sapiens, UniProt P30989); assay: Competitive radioligand binding assay, NTS1; details: Ki (NTS1, nM), membranes of CHO cells stably expressing human NTS1; mean ± SEM, 4-8 experiments
Protocol: Receptor binding data were performed as described previously. […] NTS2 binding was conducted using homogenates of membranes from HEK 293 cells transiently transfected with pcDNA3.1 carrying the human NTS2 gene (Missouri S&T cDNA Resource Center (UMR), Rolla, MO, USA) using the Mirus TransIT-293 transfection reagent (MoBiTec, Göttingen, Germany) according to the manufacturer’s protocol.
Data analysis of the competition binding curves from the radioligand displacement experiments was done by non-linear regression analysis when applying the algorithms of the PRISM 6.0 software package (GraphPad Software, San Diego, CA, USA). EC50 values were derived from each dose-response curve and were subsequently transformed into the corresponding Ki values by applying the equation of Cheng and Prusoff. Mean Ki values and the corresponding S.E.M. values (standard error of the mean) were determined by analyzing four to eight individual experiments.

[3] = format: in vivo; details: mouse blood sample taken 5 min after injection, HPLC
Protocol: The in vivo stability of [^68Ga]Ga-TRAP(NT4)3 was measured from a blood sample taken 5 min after injection in mice. […] Unfortunately, it was not possible to determine the stability at later time points due to the low amount of residual radioactivity in the blood.

[4] = Small animal PET imaging of HT29 tumor-bearing mice; details: mouse, in vivo, molar radioactivities of more than 20 MBq/nmol, read-out: highest tumor uptake values by PET
Protocol: The highest tumor uptake values of approximately 2 %ID/g were determined with molar radioactivities of more than 20 MBq/nmol. […] Considering all eight mice, which were repeatedly measured by PET with varying molar radioactivities of [^68Ga]Ga-TRAP(NT4)3, a good correlation of molar radioactivity and tumor uptake could be observed (Figure 4b; r = 0.713, Spearman correlation, p < 0.0004).
PET scans and image analysis were performed using a small-animal PET scanner (Inveon, Siemens Medical Solutions, Erlangen, Germany). About 1.5–4 MBq of [^68Ga]Ga-TRAP(NT4)3 with varying amounts of 0.02–10 nmol TRAP(NT4)3 were intravenously injected into the mice under isoflurane anesthesia (4%). Animals were subjected to a 60 min dynamic scan starting with tracer injection. After iterative maximum a posteriori image reconstruction of the decay- and attenuation-corrected images, regions of interest (ROIs) were drawn over the tumor. The radioactivity concentration within the tumor region was obtained from the mean value within the multiple ROIs and then converted to SUV relative to the injected dose and the individual body weight.

human NTS1, sequence (P30989 whole entry): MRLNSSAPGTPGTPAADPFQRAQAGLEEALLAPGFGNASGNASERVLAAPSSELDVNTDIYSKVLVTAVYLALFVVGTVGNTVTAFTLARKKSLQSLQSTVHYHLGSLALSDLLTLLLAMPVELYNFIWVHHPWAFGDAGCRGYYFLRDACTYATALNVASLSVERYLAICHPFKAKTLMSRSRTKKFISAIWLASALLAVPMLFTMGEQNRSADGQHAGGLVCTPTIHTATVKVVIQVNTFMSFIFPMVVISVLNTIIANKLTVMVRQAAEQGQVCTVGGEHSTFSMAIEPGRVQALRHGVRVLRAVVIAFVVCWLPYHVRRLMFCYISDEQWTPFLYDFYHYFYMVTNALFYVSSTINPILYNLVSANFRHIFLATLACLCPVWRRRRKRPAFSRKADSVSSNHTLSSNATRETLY

For `CC(C)C[C@H](NC(=O)[C@@H](NC(=O)[C@H](Cc1ccc(O)cc1)NC(=O)[C@@H]1CCCN1C(=O)[C@H](CCCCN)NC(=O)CN(CCCCN)C(=O)[C@@H](N)CCCCn1cc(CNC(=O)CCP(=O)(O)CN2CCN(CP(=O)(O)CCC(=O)NCc3cn(CCCC[C@H](N)C(=O)N(CCCCN)CC(=O)N[C@@H](CCCCN)C(=O)N4CCC[C@H]4C(=O)N[C@@H](Cc4ccc(O)cc4)C(=O)N[C@H](C(=O)N[C@@H](CC(C)C)C(=O)O)C(C)(C)C)nn3)CCN(CP(=O)(O)CCC(=O)NCc3cn(CCCC[C@H](N)C(=O)N(CCCCN)CC(=O)N[C@@H](CCCCN)C(=O)N4CCC[C@H]4C(=O)N[C@@H](Cc4ccc(O)cc4)C(=O)N[C@H](C(=O)N[C@@H](CC(C)C)C(=O)O)C(C)(C)C)nn3)CC2)nn1)C(C)(C)C)C(=O)O` (single isomer, unassigned) [[^68Ga]Ga-TRAP(NT4)3, metal not drawn], the tissue to tissue ratio at 1 h ([1]; female, athymic NMRI nude (nu/nu), HT29 tumor / blood, iv, total radioactivity, 60 min p.i.) was 13, the tissue to tissue ratio at 1.5 h ([1]; female, athymic NMRI nude (nu/nu), HT29 tumor / blood, iv, total radioactivity, 90 min p.i.) was 36 and the SUV at 1 h ([1]; female, athymic NMRI nude (nu/nu), HT29 tumor, iv, total radioactivity, 60 min p.i., equals 1.7 %ID/g) was about 0.7 SUV. The tissue uptake at 1.5 h ([1]; 60 and 90 min p.i., read-out: uptake in the liver) was 11 to 12 %ID/g, the tissue uptake at 1.5 h ([1]; 60 and 90 min p.i., read-out: uptake values in the kidneys) was 55 to 102 %ID/g and the tissue uptake at 1 h ([1]; 60 min p.i., blocking: co-injection of NT4 (100 nmol per mouse), read-out: HT29 tumor uptake) was 0.6 ± 0.13 %ID/g. The tissue uptake at 1 h ([1]; 60 min p.i., blocking: co-injection of NT4 (100 nmol per mouse), read-out: blood uptake) was 0.4 ± 0.01 %ID/g, the tissue uptake at 1 h ([1]; 60 min p.i., blocking: co-injection of NT4 (100 nmol per mouse), read-out: brain uptake) was 0.07 ± 0.02 %ID/g and the tissue uptake at 1 h ([1]; 60 min p.i., blocking: co-injection of NT4 (100 nmol per mouse), read-out: femur uptake) was 1.72 ± 0.12 %ID/g. For the same compound, the tissue uptake at 1 h ([1]; 60 min p.i., blocking: co-injection of NT4 (100 nmol per mouse), read-out: heart uptake) was 0.45 ± 0.13 %ID/g, the tissue uptake at 1 h ([1]; 60 min p.i., blocking: co-injection of NT4 (100 nmol per mouse), read-out: intestine uptake) was 0.49 ± 0.07 %ID/g and the tissue uptake at 1 h ([1]; 60 min p.i., blocking: co-injection of NT4 (100 nmol per mouse), read-out: kidney uptake) was 99.9 ± 15.5 %ID/g. It also gave a tissue uptake at 1 h ([1]; 60 min p.i., blocking: co-injection of NT4 (100 nmol per mouse), read-out: liver uptake) of 11.2 ± 2.27 %ID/g, a tissue uptake at 1 h ([1]; 60 min p.i., blocking: co-injection of NT4 (100 nmol per mouse), read-out: lung uptake) of 6.06 ± 1.19 %ID/g and a tissue uptake at 1 h ([1]; 60 min p.i., blocking: co-injection of NT4 (100 nmol per mouse), read-out: muscle uptake) of 0.16 ± 0.03 %ID/g. For the same compound, the tissue uptake at 1 h ([1]; 60 min p.i., blocking: co-injection of NT4 (100 nmol per mouse), read-out: spleen uptake) was 3.75 ± 0.81 %ID/g, the tissue uptake at 1 h ([1]; 60 min p.i., blocking: co-injection of TRAP(NT4)3 (20 nmol per mouse), read-out: HT29 tumor uptake) was 1.1 ± 0.2 %ID/g and the tissue uptake at 1 h ([1]; 60 min p.i., blocking: co-injection of TRAP(NT4)3 (20 nmol per mouse), read-out: blood uptake) was 0.07 ± 0.01 %ID/g. It also gave a tissue uptake at 1 h ([1]; 60 min p.i., blocking: co-injection of TRAP(NT4)3 (20 nmol per mouse), read-out: brain uptake) of 0.06 ± 0.07 %ID/g, a tissue uptake at 1 h ([1]; 60 min p.i., blocking: co-injection of TRAP(NT4)3 (20 nmol per mouse), read-out: femur uptake) of 0.74 ± 0.14 %ID/g and a tissue uptake at 1 h ([1]; 60 min p.i., blocking: co-injection of TRAP(NT4)3 (20 nmol per mouse), read-out: heart uptake) of 0.15 ± 0.11 %ID/g. It also gave a tissue uptake at 1 h ([1]; 60 min p.i., blocking: co-injection of TRAP(NT4)3 (20 nmol per mouse), read-out: intestine uptake) of 0.49 ± 0.08 %ID/g, a tissue uptake at 1 h ([1]; 60 min p.i., blocking: co-injection of TRAP(NT4)3 (20 nmol per mouse), read-out: kidney uptake) of 96.3 ± 8.83 %ID/g and a tissue uptake at 1 h ([1]; 60 min p.i., blocking: co-injection of TRAP(NT4)3 (20 nmol per mouse), read-out: liver uptake) of 8.3 ± 0.87 %ID/g. For the same compound, the tissue uptake at 1 h ([1]; 60 min p.i., blocking: co-injection of TRAP(NT4)3 (20 nmol per mouse), read-out: lung uptake) was 1.61 ± 0.42 %ID/g, the tissue uptake at 1 h ([1]; 60 min p.i., blocking: co-injection of TRAP(NT4)3 (20 nmol per mouse), read-out: muscle uptake) was 0.1 ± 0.05 %ID/g and the tissue uptake at 1 h ([1]; 60 min p.i., blocking: co-injection of TRAP(NT4)3 (20 nmol per mouse), read-out: spleen uptake) was 2.2 ± 0.39 %ID/g. The tissue uptake at 1 h ([1]; 60 min p.i., read-out: HT29 tumor uptake) was 1.7 %ID/g, the tissue uptake at 1 h ([1]; 60 min p.i., read-out: blood uptake) was 0.13 ± 0.02 %ID/g and the tissue uptake at 1 h ([1]; 60 min p.i., read-out: brain uptake) was 0.04 ± 0.01 %ID/g. The tissue uptake at 1 h ([1]; 60 min p.i., read-out: femur uptake) was 1.51 ± 0.12 %ID/g, the tissue uptake at 1 h ([1]; 60 min p.i., read-out: heart uptake) was 0.13 ± 0.02 %ID/g and the tissue uptake at 1 h ([1]; 60 min p.i., read-out: intestine uptake) was 1.5 ± 0.42 %ID/g. For the same compound, the tissue uptake at 1 h ([1]; 60 min p.i., read-out: kidney uptake) was 94.5 ± 10.8 %ID/g, the tissue uptake at 1 h ([1]; 60 min p.i., read-out: liver uptake) was 11.2 ± 0.3 %ID/g and the tissue uptake at 1 h ([1]; 60 min p.i., read-out: lung uptake) was 2.76 ± 0.53 %ID/g. The tissue uptake at 1 h ([1]; 60 min p.i., read-out: muscle uptake) was 0.09 ± 0.03 %ID/g, the tissue uptake at 1 h ([1]; 60 min p.i., read-out: spleen uptake) was 3.72 ± 0.09 %ID/g and the tissue uptake at 1.5 h ([1]; 90 min p.i., read-out: HT29 tumor uptake) was 1.44 ± 0.13 %ID/g. It also gave a tissue uptake at 1.5 h ([1]; 90 min p.i., read-out: blood uptake) of 0.04 ± 0.02 %ID/g, a tissue uptake at 1.5 h ([1]; 90 min p.i., read-out: brain uptake) of 0.02 ± 0.01 %ID/g and a tissue uptake at 1.5 h ([1]; 90 min p.i., read-out: femur uptake) of 1.17 ± 0.21 %ID/g. It also gave a tissue uptake at 1.5 h ([1]; 90 min p.i., read-out: heart uptake) of 0.35 ± 0.37 %ID/g, a tissue uptake at 1.5 h ([1]; 90 min p.i., read-out: intestine uptake) of 1.31 ± 0.2 %ID/g and a tissue uptake at 1.5 h ([1]; 90 min p.i., read-out: kidney uptake) of 102 ± 29.9 %ID/g. For the same compound, the tissue uptake at 1.5 h ([1]; 90 min p.i., read-out: liver uptake) was 11.7 ± 0.48 %ID/g, the tissue uptake at 1.5 h ([1]; 90 min p.i., read-out: lung uptake) was 2.37 ± 0.21 %ID/g and the tissue uptake at 1.5 h ([1]; 90 min p.i., read-out: muscle uptake) was 0.11 ± 0.08 %ID/g. For the same compound, the tissue uptake at 1.5 h ([1]; 90 min p.i., read-out: spleen uptake) was 3.45 ± 0.38 %ID/g, the HT29 tumor uptake ([2]; 60 min p.i.) was 1.74 ± 0.21 %ID/g and the “tumor uptake compared to monomeric analogs” value ([2]; HT29 tumor) was “two-fold”. For the same compound, the Ki (human NTS1) was 0.1 nM, the “formation of a more hydrophilic radiometabolite” value [3] was 8% and the tissue uptake [4] was about 2 %ID/g.
